The supplement of paper PMC9170038

Test system: MS2 coat protein
Experiment: apparent KD of MS2 coat protein; designed switch direction (-1 OFF switch, 1 ON switch): -1; higher = weaker reporter binding
Procedure, shortened: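 SNAP-549-labelled MS2 coat protein was titrated, doubling from 0.7 or 1.5 nM to 3 µM, over designed RNA switches transcribed on Illumina chips by stalled E. coli RNA polymerase. Runs were done without input, with 200 uM small-molecule ligand, or with an oligonucleotide input. Apparent KD is the per-design median over clusters of curve-fitted normalised fluorescence.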

[1] = Eterna round: R95, input ligand: microRNA oligo, concentration not stated
[2] = input ligand: microRNA oligo, concentration not stated

Sequence | apparent KD of MS2 coat protein (Eterna round: R95, input ligand: FMN 200 uM) | apparent KD of MS2 coat protein [1] | apparent KD of MS2 coat protein (Eterna round: R95, input ligand: none) | apparent KD of MS2 coat protein (input ligand: FMN 200 uM) | apparent KD of MS2 coat protein [2] | apparent KD of MS2 coat protein (input ligand: none)
GCGAAAGCAAGCAAGUGAAACAUGAGGAUCACCCAUGUACUCAUUUGCUCGUCUUGUAAGCUAUGCGAAAGCAUAGC [Mat - Sensor v3 - turn-off var 1 - Eli Mod - D51] (puzzle: Sensor v3, turn-off variant 1) | 10.7 nM | 9.67 nM | 9.72 nM | – | – | –
GCGACGCUACAUGAGGAUCACCCAUGUCCUCACAUGAGAUGGUAGGAUAUUAUAUAUACAUUGUGUGAGAAGGAUCAUCGCCCA [Eternabot solution 2] (Eterna round: R96, puzzle: Exclusion NG 3) | – | – | – | 351 nM | 74.8 nM | 121 nM
GCGAGCUGAGGAUAUACAUGAGGAUCACCCAUGUAUUUUGGAAGACUGCCUCCUGCACGUAGAAGGCGGCUCUU [Eternabot (L2) Solution 35] (Eterna round: R97, puzzle: Exclusion 3) | – | – | – | 24.4 nM | – | 24.7 nM
GCGCACCUACCAAAAGGUAGGCCAACAUGAGGAUCACCCAUGUAGGAUAUCGAUUGCUUUGCAGUCGAGAAGGGCAUGAUGCGC [JL ENG3 3.80 Mod 20] (Eterna round: R96, puzzle: Exclusion NG 3) | – | – | – | 17.2 nM | 14.4 nM | 19.9 nM
GCGCACCUACCAAAAGGUAGGUCCACAUGAGGAUCACCCAUGUAGGAUAUCGAUUGCUUUGCAGUCGAGAAGGACAUGAUGCGC [JL ENG3 3.80 Mod 10] (Eterna round: R96, puzzle: Exclusion NG 3) | – | – | – | 52.3 nM | 18.1 nM | 21.3 nM
GCGCACUAAGUGAGGAUAUCGUUUAUUUUUAGGAUCGAGAAGGCACAUGAGGAUCACCCAUGUUUGACGUGCGC [JR_BMOE4_Sub099] (puzzle: Brourd's mod of Exclusion 4) | – | 17.9 nM | – | – | – | –
GCGCAGUCAGGAUAUGCCGCUUGCGAUCACCGUUGGCAAAGGCAGAAGGGACAUGAGGAUCACCCAUGUGGCGC [e4e Mirror Pins #3] (puzzle: Exclusion 4) | – | 18.1 nM | – | – | – | –
GCGCCAUCGUGAGAUGGCGUAAAUACAUGAGGAUCACCCAUGUAGGAUAUCGAUUGCUUUGCAGUCGAGAAGGGCAAGGUAUUU [JL ENG3 3.90] (Eterna round: R96, puzzle: Exclusion NG 3) | – | – | – | 28.4 nM | 18.1 nM | 24.9 nM
GCGCCAUCGUGAGAUGGCGUAACUACAUGAGGAUCACCCAUGUAGGAUAUCGAUUGCUUUGCAGUCGAGAAGGGCAUGGUUUGU [JL ENG3 3.86] (Eterna round: R96, puzzle: Exclusion NG 3) | – | – | – | 56.1 nM | 20.2 nM | 22.8 nM
GCGCGAAGGUAGGAUAUCCGGGCAUCUUGCCGCGGAGAAGGACCCACAUGAGGAUCACCCAUGUGGUGAUCCUG [eternacac ex6r4 sub12] (Eterna round: R97, puzzle: Exclusion 6) | – | – | – | 40.8 nM | – | 19.4 nM
GCGGACUAGUUCGUGAGAACUGAGACAUGAGGAUCACCCAUGUAGGAUAUCGAUUCGAAACGAAUCGAGAAGGGCAUAGUCCGC [JL denovo 9] (Eterna round: R96, puzzle: Exclusion NG 3) | – | – | – | 25.1 nM | 17.7 nM | 26.8 nM
GCGGACUUGAUCGUGAGAUCAGAGACAUGAGGAUCACCCAUGUAGGAUAUCGAUUCGUUUCGAAUCGAGAAGGGCGUGGUCCGC [JL denovo 15] (Eterna round: R96, puzzle: Exclusion NG 3) | – | – | – | 83.9 nM | 52.2 nM | 70.2 nM
